One assay addresses T1, P6-AA-1HGe-W.
T1 chain: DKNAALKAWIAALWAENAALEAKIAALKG
Briefly: two-hybrid library CCmax.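 Further: natural log of median RNA to DNA barcode read ratio; higher means stronger binding.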 The following applies: mean of both orientations.

In a further assay the target is T2, P6-AA-1HGe-M.
T2 chain: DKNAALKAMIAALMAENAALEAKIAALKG
Briefly: two-hybrid library CCmax.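 Further: natural log of median RNA to DNA barcode read ratio; higher means stronger binding.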 The following applies: mean of both orientations.

A further assay has as its target T3, P6-AA-1HGe-H.
T3 chain: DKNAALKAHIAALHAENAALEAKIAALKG
Briefly: two-hybrid library CCmax.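 Further: natural log of median RNA to DNA barcode read ratio; higher means stronger binding.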 Conditions: mean of both orientations.

A further assay addresses T4, O5-AA.
T4 chain: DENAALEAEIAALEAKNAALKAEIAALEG
As to the kind of experiment: two-hybrid library CCmax.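 Further: natural log of median RNA to DNA barcode read ratio; higher means stronger binding.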

The next assay has as its target T5, O7-AA.
T5 chain: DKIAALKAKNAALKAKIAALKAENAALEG
As to the kind of experiment: two-hybrid library CCmax. The following applies: mean of both orientations.

In the next assay the target is T6, P6-AA-1HGe-Q.
T6 chain: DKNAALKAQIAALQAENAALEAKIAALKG
As to the kind of experiment: two-hybrid library CCmax. Conditions: mean of both orientations.

Another assay addresses T7, P6-AA-1HGe-D.
T7 chain: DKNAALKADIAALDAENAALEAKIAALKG
Briefly: two-hybrid library CCmax. Conditions: mean of both orientations.

In the next assay the target is T8, O6-AA.
T8 chain: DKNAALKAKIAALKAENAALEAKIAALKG
As to the kind of experiment: two-hybrid library CCmax. The following applies: mean of both orientations.

Another assay concerns the target T9, P6-AA-1HGe-R.
T9 chain: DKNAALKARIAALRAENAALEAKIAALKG
Briefly: two-hybrid library CCmax. The following applies: mean of both orientations.

The target in a further assay is T10, P6-AA-1HGe-S.
T10 chain: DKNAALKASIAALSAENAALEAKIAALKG
As to the kind of experiment: two-hybrid library CCmax. Conditions: mean of both orientations.

The next assay has as its target T11, P6-AA-1HGe-A.
T11 chain: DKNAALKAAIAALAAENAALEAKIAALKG
As to the kind of experiment: two-hybrid library CCmax. The following applies: mean of both orientations.

A further assay addresses T12, P9-AA.
T12 chain: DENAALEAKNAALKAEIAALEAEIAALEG
Briefly: two-hybrid library CCmax. The following applies: mean of both orientations.

The target of a further assay is T13, P6-AA-1HGe-T.
T13 chain: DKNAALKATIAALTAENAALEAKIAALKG
Briefly: two-hybrid library CCmax. The following applies: mean of both orientations.

The next assay concerns the target T14, P10-AA.
T14 chain: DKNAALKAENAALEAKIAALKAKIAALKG
Briefly: two-hybrid library CCmax. Conditions: mean of both orientations.

For a further assay, the target named is T15, O8-AA.
T15 chain: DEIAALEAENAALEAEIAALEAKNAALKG
Briefly: two-hybrid library CCmax. The following applies: mean of both orientations.

A further assay deals with T16, P9mSN.
T16 chain: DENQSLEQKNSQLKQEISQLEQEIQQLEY
Briefly: two-hybrid library CCNG1.

Another assay has as its target T17, P8mSN.
T17 chain: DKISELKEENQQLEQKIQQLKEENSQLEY
As to the kind of experiment: two-hybrid library CCNG1.

B1: O5-AA (peptide)
chain: DENAALEAEIAALEAKNAALKAEIAALEG
Take B1: the interaction score is 2.02 with P6-AA-1HGe-W; 2.3 with P6-AA-1HGe-M; 2.44 with P6-AA-1HGe-H; -1.71 in the assay with O5-AA; -0.71 in the assay with O7-AA; 2.4 with P6-AA-1HGe-Q. For the same molecule, the interaction score was 0.905 with P6-AA-1HGe-D; 1.88 in the assay with O6-AA; 2.38 with P6-AA-1HGe-R; 2.12 with P6-AA-1HGe-S; 2.15 with P6-AA-1HGe-A; -1.56 with P9-AA. The interaction score is 2.21 with P6-AA-1HGe-T, 0.434 in the assay with P10-AA and -0.935 with O8-AA.

B2: P8mSN (peptide)
chain: DKISELKEENQQLEQKIQQLKEENSQLEY
Consider B2, for which the interaction score is -1.04 with P9mSN and -0.489 with P8mSN.

The values above are taken from article PMC10397247.
